Common to all, as to assay: SPR, KD relative to WT C2;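 note: biacore SPR at 37 °C, anti-C2 mAbs captured on anti-human IgG chips with alanine or serine point mutants of C2 as analyte, KD from 1:1 fit compared with wild-type C2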
Experiment [1] deals with T1, human C2 D417A (human, UniProt P06681 21-752).
T1 sequence: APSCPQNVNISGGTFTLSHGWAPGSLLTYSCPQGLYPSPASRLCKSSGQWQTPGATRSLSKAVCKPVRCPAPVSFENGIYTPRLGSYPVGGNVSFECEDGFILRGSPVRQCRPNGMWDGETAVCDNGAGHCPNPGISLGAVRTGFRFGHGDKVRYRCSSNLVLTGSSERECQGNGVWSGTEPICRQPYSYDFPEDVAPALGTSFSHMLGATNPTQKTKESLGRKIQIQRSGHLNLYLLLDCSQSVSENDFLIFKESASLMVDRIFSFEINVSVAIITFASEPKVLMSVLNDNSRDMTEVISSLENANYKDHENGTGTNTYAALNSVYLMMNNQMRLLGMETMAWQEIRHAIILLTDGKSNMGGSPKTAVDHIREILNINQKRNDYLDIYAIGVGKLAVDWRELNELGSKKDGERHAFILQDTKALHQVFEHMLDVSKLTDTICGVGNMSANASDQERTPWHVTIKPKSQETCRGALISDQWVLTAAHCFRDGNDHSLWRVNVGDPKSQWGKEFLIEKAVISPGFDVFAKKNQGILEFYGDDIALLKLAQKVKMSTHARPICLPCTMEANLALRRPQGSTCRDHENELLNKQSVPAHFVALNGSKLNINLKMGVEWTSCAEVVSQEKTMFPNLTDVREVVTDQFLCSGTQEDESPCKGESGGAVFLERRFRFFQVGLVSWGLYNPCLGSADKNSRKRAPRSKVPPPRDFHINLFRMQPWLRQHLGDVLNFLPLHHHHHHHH

Experiment [2] has as its target T2, human C2 A444S (human, UniProt P06681 21-752).
T2 sequence: T1 sequence with A397D, A424S

In experiment [3] the target is T3, human C2 L620A (human, UniProt P06681 21-752).
T3 sequence: T1 sequence with A397D, L600A

The target in experiment [4] is T4, human C2 G677A (human, UniProt P06681 21-752).
T4 sequence: T1 sequence with A397D, G657A

Changes are numbered by the printed parent chain.

B1: RF16-242 (antibody, human IgG4 S228P, lambda, V domains shown)
VH: EVQLLQSGAEVKKPGESLKISCKGSGYSFTSYWIGWVRQMPGKGLEWMGIIYPGDSDTRYSPSFQGQVTISADKSISTAYLQWSSLKASDTAMYYCARRGHYGDYFDYWGQGTLVTVSS
VL: SYELTQPPSVSVSPGQTARITCSGDALPKKYAYWYHQKSGQAPVLVIYEDRRRPSEIPERFSGSSSGTMATLTITGAQVEDEGVYFCYSRDRAGNQRVFGGGTQLTVLG
notes: pH-dependent anti-C2 antibody from a phage display library
B1: the Fold diff in experiment [1] was determined as 3 fold; in experiment [2] it was 3 fold; in experiment [3], 1 fold; in experiment [4], 1 fold.

Values taken from patent US20220332804A1 (CSL INNOVATION, published 2022).
